Source: patent USRE48267E1, “Variants of C-type natriuretic peptide” (priority 2009, dated 2020)
Bridges are numbered along the chain shown (N, C = ends). Where no end group is shown, it is not given here. The star is where a group is joined. Heptanoyl = CCCCCCC(=O)*

T1: NPR-B (natriuretic peptide receptor B), murine, expressed endogenously on NIH3T3 cells (murine, UniProt Q6VVW5 17-1047)
T1 sequence (looked up): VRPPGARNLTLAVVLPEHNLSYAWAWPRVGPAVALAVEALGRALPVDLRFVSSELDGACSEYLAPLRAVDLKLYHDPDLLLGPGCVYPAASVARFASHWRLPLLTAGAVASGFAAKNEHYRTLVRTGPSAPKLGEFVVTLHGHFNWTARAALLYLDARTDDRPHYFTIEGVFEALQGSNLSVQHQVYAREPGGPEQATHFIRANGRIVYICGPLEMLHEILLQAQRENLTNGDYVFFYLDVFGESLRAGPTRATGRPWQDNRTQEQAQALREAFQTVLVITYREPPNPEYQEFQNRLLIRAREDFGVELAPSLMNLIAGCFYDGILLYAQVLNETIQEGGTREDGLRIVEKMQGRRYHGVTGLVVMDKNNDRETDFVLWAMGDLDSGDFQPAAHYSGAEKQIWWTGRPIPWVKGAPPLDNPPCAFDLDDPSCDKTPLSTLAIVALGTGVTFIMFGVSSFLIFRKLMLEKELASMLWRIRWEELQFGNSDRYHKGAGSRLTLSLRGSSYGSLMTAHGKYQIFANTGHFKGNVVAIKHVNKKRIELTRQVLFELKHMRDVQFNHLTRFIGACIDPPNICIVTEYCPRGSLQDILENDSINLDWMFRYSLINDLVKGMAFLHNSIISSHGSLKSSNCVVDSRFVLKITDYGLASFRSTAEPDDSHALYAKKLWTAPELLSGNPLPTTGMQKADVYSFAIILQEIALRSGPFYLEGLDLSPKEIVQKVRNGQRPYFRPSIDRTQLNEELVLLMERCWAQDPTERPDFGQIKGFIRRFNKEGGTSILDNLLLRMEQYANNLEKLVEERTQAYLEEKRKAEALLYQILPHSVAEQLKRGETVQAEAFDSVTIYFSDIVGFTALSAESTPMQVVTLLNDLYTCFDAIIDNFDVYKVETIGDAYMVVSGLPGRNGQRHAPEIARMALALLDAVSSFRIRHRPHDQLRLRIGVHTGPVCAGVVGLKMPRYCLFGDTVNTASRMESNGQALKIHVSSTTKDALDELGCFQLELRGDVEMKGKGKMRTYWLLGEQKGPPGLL


Biological target: T1, NPR-B (natriuretic peptide receptor B), …
Experiment: cell-based or functional assay

| Binder | cGMP response rel. to 1 uM CNP22; 10 nM peptide, NIH3T3 cells | cGMP response rel. to 1 uM CNP22; 1 uM peptide, NIH3T3 cells |
| --- | --- | --- |
| GLSRGCFGLKLDRIGSMSGLSC [CNP22, K4R, G21S] | 7 rel. to 1 uM CNP22 (100) | 39 rel. to 1 uM CNP22 (100) |

Biological target: T1, NPR-B (natriuretic peptide receptor B), …
Experiment: cell-based or functional assay
Remark: another data set of the same source

| Binder | cGMP response rel. to 1 uM CNP22; 10 nM peptide, NIH3T3 cells | cGMP response rel. to 1 uM CNP22; 1 uM peptide, NIH3T3 cells |
| --- | --- | --- |
| GANSSGLSRGCFGLKLDRIGSMSGLGC [GANSS-CNP22, K4R] | 27 rel. to 1 uM CNP22 (100) | 88 rel. to 1 uM CNP22 (100) |
| AAWARLLQEHPNAGLSKGCFGLKLDRIGSMSGLGC (ends and bridges not checked; cysteine pairing not given here) [AAWARLLQEHPNA-CNP22] | 24 rel. to 1 uM CNP22 (100) | 76 rel. to 1 uM CNP22 (100) |
| GQPREPQVYTLPPSGLSKGCFGLKLDRIGSMSGLGC [GQPREPQVYTLPPS-CNP22 (IgG1(Fc) fragment)] | 23 rel. to 1 uM CNP22 (100) | 72 rel. to 1 uM CNP22 (100) |
| SPKMVQGSGCFGLKLDRIGSMSGLGCKVLRRH (disulfide 10-26 (inferred)) [SPKMVQGSG-CNP17-KVLRRH (BNP tails)] | 25 rel. to 1 uM CNP22 (100) | 102 rel. to 1 uM CNP22 (100) |
| AAWARLLQEHPNARGLSKGCFGLKLDRIGSMSGLGC (ends and bridges not checked; cysteine pairing not given here) [AAWARLLQEHPNAR-CNP22] | 36 rel. to 1 uM CNP22 (100) | 84 rel. to 1 uM CNP22 (100) |
| GQPREPQVYTGANQQGLSRGCFGLKLDRIGSMSGLGC [GQPREPQVYTGANQQ-CNP22, K4R (IgG1(Fc) fragment)] | 2 rel. to 1 uM CNP22 (100) | 32 rel. to 1 uM CNP22 (100) |
| PGQEHPNARKYKGANKKGLSKGCFGLKLDRIGSMSGLGC (ends and bridges not checked; cysteine pairing not given here) [PGQEHPNARKYKGANKK-CNP22 (Pro-Gly-CNP37)] | 49 rel. to 1 uM CNP22 (100) | 103 rel. to 1 uM CNP22 (100) |
| GLSRGCFGLRLDRIGSMSGLGC (ends and bridges not checked; also: dimer joined N-terminus to N-terminus by disuccinimidyl glutarate) [CNP22, K4R, K10R, N-term.--N-term. dimer/disuccinimidyl glutarate] | 19 rel. to 1 uM CNP22 (100) | 44 rel. to 1 uM CNP22 (100) |
| Heptanoyl-ELSKGCFGLKLDRIGSMSGLGC (ends and bridges not checked) [Heptanoic acid (N-term.)-CNP22, G1E] | 32 rel. to 1 uM CNP22 (100) | 84 rel. to 1 uM CNP22 (100) |
| DLRVDTKSRAAWARGLSKGCFGLKLDRIGSMSGLGC [DLRVDTKSRAAWAR-CNP22] | 34 rel. to 1 uM CNP22 (100) | 101 rel. to 1 uM CNP22 (100) |
| GLSRGCFGLRLDRIGSMSGLGC (ends and bridges not checked; also: dimer joined N-terminus to N-terminus by Bis-PEO5) [CNP22, K4R, K10R, N-term.--N-term. dimer/Bis-PEO5] | 19 rel. to 1 uM CNP22 (100) | 41 rel. to 1 uM CNP22 (100) |
| PGHKSEVAHRFKGANKKGLSKGCFGLKLDRIGSMSGLGC [PGHKSEVAHRFKGANKK-CNP22 (Pro-HSA-CNP27)] | 32 rel. to 1 uM CNP22 (100) | 107 rel. to 1 uM CNP22 (100) |
| CNP53 (peptide) peptide: DLRVDTKSRAAWARLLQEHPNARKYKGANKKGLSKGCFGLKLDRIGSMSGLGC | 61 rel. to 1 uM CNP22 (100) | 101 rel. to 1 uM CNP22 (100) |
| GANPRGLSRGCFGLKLDRIGSMSGLGC [GANPR-CNP22, K4R] | 50 rel. to 1 uM CNP22 (100) | 105 rel. to 1 uM CNP22 (100) |
| GERAFKAWAVARLSQGLSKGCFGLKLDRIGSMSGLGC [GERAFKAWAVARLSQ-CNP22 (HSA fragment)] | 15 rel. to 1 uM CNP22 (100) | 87 rel. to 1 uM CNP22 (100) |
| RGLSRGCFGLKLDRIGSMSGLGC [R-CNP22, K4R] | 54 rel. to 1 uM CNP22 (100) | 106 rel. to 1 uM CNP22 (100) |
| GSTGQWHSESGANQQGLSRGCFGLKLDRIGSMSGLGC [GSTGQWHSESGANQQ-CNP22, K4R (fibrinogen)] | 2 rel. to 1 uM CNP22 (100) | 33 rel. to 1 uM CNP22 (100) |
| GANQQGLSRGCFGLKLDRIGSMSGLGC [GANQQ-CNP22, K4R] | 44 rel. to 1 uM CNP22 (100) | 95 rel. to 1 uM CNP22 (100) |
| QEHPNARKYKGANKKGLSKGCFGLKLDRIGSMSGLGC (ends and bridges not checked; cysteine pairing not given here) [QEHPNARKYKGANKK-CNP22 (CNP37)] | 43 rel. to 1 uM CNP22 (100) | 97 rel. to 1 uM CNP22 (100) |
| GQTHSSGTQSGANQQGLSRGCFGLKLDRIGSMSGLGC [GQTHSSGTQSGANQQ-CNP22, K4R (fibrinogen)] | 12 rel. to 1 uM CNP22 (100) | 115 rel. to 1 uM CNP22 (100) |
| GQEHPNARKYKGANPKGLSKGCFGLKLDRIGSMSGLGC (ends and bridges not checked; cysteine pairing not given here) [GQEHPNARKYKGANPK-CNP22 (modified CNP37)] | 19 rel. to 1 uM CNP22 (100) | 61 rel. to 1 uM CNP22 (100) |
| GQEHPNARKYKGANQKGLSKGCFGLKLDRIGSMSGLGC (ends and bridges not checked; cysteine pairing not given here) [GQEHPNARKYKGANQK-CNP22 (modified CNP37)] | 60 rel. to 1 uM CNP22 (100) | 121 rel. to 1 uM CNP22 (100) |
| GQEHPNARKYKGANQQGLSKGCFGLKLDRIGSMSGLGC (ends and bridges not checked; cysteine pairing not given here) [GQEHPNARKYKGANQQ-CNP22 (modified CNP37)] | 9 rel. to 1 uM CNP22 (100) | 57 rel. to 1 uM CNP22 (100) |
| GQEHPNARKYKGANKKGLSKGCFGLKLDRIGSMSGLGC (ends and bridges not checked; cysteine pairing not given here) [GQEHPNARKYKGANKK-CNP22 (Gly-CNP37)] | 50 rel. to 1 uM CNP22 (100) | 98 rel. to 1 uM CNP22 (100) |
| GHHSHEQHPHGANQQGLSKGCFGLKLDRIGSMSGLGC [GHHSHEQHPHGANQQ-CNP22 (HRGP fragment)] | 16 rel. to 1 uM CNP22 (100) | 95 rel. to 1 uM CNP22 (100) |
| ERGLSRGCFGLKLDRIGSMSGLGC [ER-CNP22, K4R] | 38 rel. to 1 uM CNP22 (100) | 113 rel. to 1 uM CNP22 (100) |
| GHKSEVAHRFKGANKKGLSKGCFGLKLDRIGSMSGLGC [GHKSEVAHRFKGANKK-CNP22 (HSA-CNP27)] | 51 rel. to 1 uM CNP22 (100) | 109 rel. to 1 uM CNP22 (100) |
| GVPQVSTSTGANQQGLSRGCFGLKLDRIGSMSGLGC [GVPQVSTSTGANQQ-CNP22, K4R (HSA fragment)] | 3 rel. to 1 uM CNP22 (100) | 35 rel. to 1 uM CNP22 (100) |
| GAHHPHEHDTHGANQQGLSKGCFGLKLDRIGSMSGLGC [GAHHPHEHDTHGANQQ-CNP22 (HRGP fragment)] | 14 rel. to 1 uM CNP22 (100) | 77 rel. to 1 uM CNP22 (100) |
| GANRRGLSRGCFGLKLDRIGSMSGLGC [GANRR-CNP22, K4R] | 59 rel. to 1 uM CNP22 (100) | 105 rel. to 1 uM CNP22 (100) |
